Reference: article PMC13065503

Target: ArtiMYC (3) (UniProt P01106)
Test: EMSA
Details: EMSA: 20 mM HEPES pH 8.0, 150 mM NaCl, 5% glycerol, 1 mM EDTA, 2 mM MgCl2, 0.5 mg/mL BSA, 1 mM DTT, 0.05% NP-40; 4 nM DNA; 30 min RT then 15 min on ice; 10% …

ArtiMYC (3), sequence (P01106 365-454): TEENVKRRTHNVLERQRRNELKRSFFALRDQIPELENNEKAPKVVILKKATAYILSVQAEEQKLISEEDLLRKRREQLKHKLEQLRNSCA

Q: With “ACCCCACCACGTGGTGCCT (double strand) [E-box DNA]” as the sequence, how does the Kd read?
A: 24 nM
